Measured values: patent US20240141045A1 (PRECIGEN, published 2024)
Residue numbers refer to the chain shown, from its start. Names and notes keep the numbering of the source.

Assays:
[1] = molecular target: T1, PD-1 (programmed cell death protein 1), on cells (UniProt Q15116 25-288, limits assumed); assay: cell-based or functional assay
[2] = molecular target: T2, TGF-β1 (UniProt P01137 279-390); assay: cell-based or functional assay
[3] = molecular target: T3, TGF-β3 (UniProt P10600 301-412); assay: cell-based or functional assay
T3 sequence (looked up): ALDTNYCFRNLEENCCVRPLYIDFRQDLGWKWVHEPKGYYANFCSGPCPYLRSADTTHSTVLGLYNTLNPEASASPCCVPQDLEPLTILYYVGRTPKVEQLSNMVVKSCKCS

[4] = molecular target: T4, PD-1 Fc fusion protein (UniProt Q15116 25-167, limits assumed); assay: SPR (Biacore 3000), PD-1 Fc immobilised on CM5 chip, fusion protein injected
T4 construct: Antigen immobilised on the CM5 chip in all PD-1 SPR assays; also called PD-1 fused to human Fc region; PD-1-Fc antigen; not shown: human Fc region
Experimental: (§1) Surface plasma resonance (SPR) analysis was performed using Biacore3000, CM5 chip, an amine-coupling kit, 10×HBS-P running buffer and Glycine for regeneration (GE Healthcare). […] Dissociation was allowed to proceed followed by a pulse of 10 mM Glycine (pH 1.5) for regeneration of the chip surface.

[5] = molecular target: T1, PD-1 (programmed cell death protein 1), …; assay: cell-based or functional assay; remark: listed apart in the source
[6] = molecular target: T4, PD-1 Fc fusion protein; assay: SPR (Biacore 3000), recombinant PD-1 Fc immobilised on CM5 chip, fusion protein injected
Experimental: Surface plasma resonance (SPR) analysis was performed using Biacore3000, CM5 chip, an amine-coupling kit, 10×HBS-P running buffer and Glycine for. […] Dissociation was allowed to proceed followed by regeneration of the chip surface.

[7] = molecular target: T4, PD-1 Fc fusion protein; assay: SPR (Biacore), PD1-Fc immobilised on CM5, 1:1 Langmuir model with mass transfer
Experimental: PD1-Fc antigen and reference antigen was immobilized on Biacore CM5 surface. […] Kinetics data was evaluated for 1:1 model: Langmuir with mass transfer.

[8] = molecular target: T2, TGF-β1; assay: cell-based or functional assay; remark: listed apart in the source
[9] = molecular target: T2, TGF-β1; assay: cell-based or functional assay; remark: listed apart in the source
[10] = molecular target: T2, TGF-β1; assay: SPR (Biacore 3000), fusion protein immobilised on CM5 chip, TGF-β1 injected
Experimental: as §1

[11] = molecular target: T5, TGF-β2 (UniProt P61812 303-414); assay: SPR (Biacore 3000), fusion protein immobilised on CM5 chip, TGF-β2 injected
T5 sequence (looked up): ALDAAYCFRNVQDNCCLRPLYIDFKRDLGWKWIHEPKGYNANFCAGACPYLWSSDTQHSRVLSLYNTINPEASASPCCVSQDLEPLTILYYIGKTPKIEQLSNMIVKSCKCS
Experimental: as §1

[12] = molecular target: T3, TGF-β3; assay: SPR (Biacore 3000), fusion protein immobilised on CM5 chip, TGF-β3 injected
Experimental: as §1

T2 sequence (P01137 279-390 limits assumed): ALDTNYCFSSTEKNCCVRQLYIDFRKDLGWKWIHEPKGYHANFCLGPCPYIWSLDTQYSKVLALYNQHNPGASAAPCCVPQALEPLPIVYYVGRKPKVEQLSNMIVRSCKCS
T4 sequence (Q15116 25-167 limits assumed): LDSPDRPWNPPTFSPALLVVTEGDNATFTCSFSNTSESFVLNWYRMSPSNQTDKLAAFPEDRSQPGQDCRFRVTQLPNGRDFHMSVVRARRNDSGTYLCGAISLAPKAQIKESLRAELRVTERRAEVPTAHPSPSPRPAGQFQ
T1 sequence (Q15116 25-288 limits assumed): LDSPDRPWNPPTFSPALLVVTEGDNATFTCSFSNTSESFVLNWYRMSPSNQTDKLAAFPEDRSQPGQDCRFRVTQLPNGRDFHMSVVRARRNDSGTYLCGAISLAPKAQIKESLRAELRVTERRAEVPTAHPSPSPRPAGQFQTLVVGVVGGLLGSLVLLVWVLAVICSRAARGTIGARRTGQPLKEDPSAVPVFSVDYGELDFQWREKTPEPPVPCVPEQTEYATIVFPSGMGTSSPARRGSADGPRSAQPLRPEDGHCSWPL

B1: Anti-PD1(VH6-VL5) IgG1-TGFβRII (antibody)
VH: QVQLVESGGGVVQPGRSLRLDCKASGITFSNSGMHWVRQAPGKGLEWVAVIWYDGSKRYYADSVKGRFTISRDNSKNTLFLQMNSLRAEDTAVYYCATNDDYWGQGTLVTVSS
VL: EIVLTQSPATLSLSPGERATLSCRASQSVSSYLAWYQQKPGQAPRLLIYDASNRATGIPARFSGSGSGTDFTLTISSLEPEDFAVYYCQQSSNWPRTFGQGTKVEIK
chain: GGGGSGGGGSIPPHVQKSVNNDMIVTDNNGAVKFPQLCKFCDVRFSTCDNQKSCMSNCSITSICEKPQEVCVAVWRKNDENITLETVCHDPKLPYHDFILEDAASPKCIMKEKKKPGETFFMCSCSSDECNDNIIFSEEYNTSNPD
notes: not shown: light-chain constant region (not tied to the IgG1 format); copies: 2 + 2 + 2
With B1 the “IC50; PD-1/PD-L1 blockade bioassay (PD-1 effector cells with PD-L1 aAPC/CHO-K1 cells, luciferase RLU)” value [1] was 9.5 nM, the “IC50; neutralisation of TGF-β1 signalling, HEK-Blue TGF-β reporter cells (SEAP, absorbance 620 nM)” value [2] was 12.7 pM and the “IC50; neutralisation of TGF-β3 signalling, HEK-Blue TGF-β reporter cells (SEAP, absorbance 620 nM)” value [3] was 5.3 pM. For the same binder, the Kd [4] was 0.00764 nM.

B2: Anti-PD1 (VH6-VL5) IgG1-ADA2 (antibody)
heavy (part 1 of 2): B1 VH
heavy (part 2 of 2): GGGGSGGGGSSIDETRAHLLLKEKMMRLGGRLVLNTKEELANERLMTLKIAEMKEAMRTLIFPPSMHFFQAKHLIERSQVFNILRMMPKGAALHLHDIGIVTMDWLVRNVTYRPHCHICFTPRGIMQFRFAHPTPRPSEKCSKWILLEDYRKRVQNVTEFDDSLLRNFTLVTQHPEVIYTNQNVVWSKFETIFFTISGLIHYAPVFRDYVFRSMQEFYEDNVLYMEIRARLLPVYELSGEHHDEEWSVKTYQEVAQKFVETHPEFIGIKIIYSDHRSKDVAVIAESIRMAMGLRIKFPTVVAGFDLVGHEDTGHSLHDYKEALMIPAKDGVKLPYFFHAGETDWQGTSIDRNILDALMLNTTRIGHGFALSKHPAVRTYSWKKDIPIEVCPISNQVLKLVSDLRNHPVATLMATGHPMVISSDDPAMFGAKGLSYDFYEVFMGIGGMKADLRTLKQLAMNSIKYSTLLESEKNTFMEIWKKRWDKFIADVATK
light: B1 VL
notes: also called anti-PD1 (VH6/VL5) hIgG1-ADA2; not shown: IgG1 (hIgG1) heavy chain constant region; light chain constant region
B2 was tested, and the “EC50 (read off the curve); PD-1/PD-L1 blockade reporter bioassay (luciferase RLU)” value [5] was roughly 600 ng/mL and the Kd [6] was 0.309 pM.

B3: Anti-PD1(VH6-VL5) scFv-TGFβRII (scFv)
chain 1: B1 VH
chain 2: B1 VL
chain 3: B1 chain
Work on B3 yielded a Kd [4] of 19.7 nM.

B4: Anti-PD1(VH7-VL6) scFv-TGFβRII (scFv)
chain 1: QVQLVQSGVEVKKPGASVKVSCKASGYTFTNYYMYWVRQAPGQGLEWMGGINPSNGGTNFNEKFKNRVTLTTDSSTTTAYMELKSLQFDDTAVYYCARRDYRFDMGFDYWGQGTTVTVSS
chain 2: EIVLTQSPATLSLSPGERATLSCRASKGVSTSGYSYLHWYQQKPGQAPRLLIYLASYLESGVPARFSGSGSGTDFTLTISSLEPEDFAVYYCQHSRDLPLTFGGGTKVEIK
chain 3: B1 chain
B4 gave a Kd [4] of 7.77 nM.

B5: Anti-PD1 (nVL1-nVH3).IgG4 (antibody, V domains shown)
VH: B1 VH with D100N
VL: B1 VL with L4M, S91Y, S92N
notes: IgG4
With B5 the Kd [7] was 0.0148 nM.

B6: Anti-PD1 (nVL1-nVH3).IgG4 (S108P) (antibody, V domains shown)
VH: B1 VH with D100N
VL: B1 VL with L4M, S91Y, S92N
B6 showed a Kd [7] of 0.0141 nM.

B7: Anti-PD1 (VL5-VH6).IgG4-Linker10-TGFbRII (antibody)
heavy: QVQLVESGGGVVQPGRSLRLDCKASGITFSNSGMHWVRQAPGKGLEWVAVIWYDGSKRYYADSVKGRFTISRDNSKNTLFLQMNSLRAEDTAVYYCATNDDYWGQGTLVTVSSASTKGPSVFPLAPCSRSTSESTAALGCLVKDYFPEPVTVSWNSGALTSGVHTFPAVLQSSGLYSLSSVVTVPSSSLGTKTYTCNVDHKPSNTKVDKRVESKYGPPCPSCPAPEFLGGPSVFLFPPKPKDTLMISRTPEVTCVVVDVSQEDPEVQFNWYVDGVEVHNAKTKPREEQFNSTYRVVSVLTVLHQDWLNGKEYKCKVSNKGLPSSIEKTISKAKGQPREPQVYTLPPSQEEMTKNQVSLTCLVKGFYPSDIAVEWESNGQPENNYKTTPPVLDSDGSFFLYSRLTVDKSRWQEGNVFSCSVMHEALHNHYTQKSLSLSPGKDPGVLEREDVPTTSYPNPGSIPPHVQKSVNNDMIVTDNNGAVKFPQLCKFCDVRFSTCDNQKSCMSNCSITSICEKPQEVCVAVWRKNDENITLETVCHDPKLPYHDFILEDAASPKCIMKEKKKPGETFFMCSCSSDECNDNIIFSEEYNTSNPD
light: not shown
B7 was tested, and the “IC50, TGF-β1 neutralization activity (HEK-Blue TGF-β reporter cells)” value [8] was 1.9 pM.

B8: Anti-PD1 (nVL1-nVH3).IgG4-TGFbRII (antibody)
heavy: QVQLVESGGGVVQPGRSLRLDCKASGITFSNSGMHWVRQAPGKGLEWVAVIWYDGSKRYYADSVKGRFTISRDNSKNTLFLQMNSLRAEDTAVYYCATNNDYWGQGTLVTVSSASTKGPSVFPLAPCSRSTSESTAALGCLVKDYFPEPVTVSWNSGALTSGVHTFPAVLQSSGLYSLSSVVTVPSSSLGTKTYTCNVDHKPSNTKVDKRVESKYGPPCPSCPAPEFLGGPSVFLFPPKPKDTLMISRTPEVTCVVVDVSQEDPEVQFNWYVDGVEVHNAKTKPREEQFNSTYRVVSVLTVLHQDWLNGKEYKCKVSNKGLPSSIEKTISKAKGQPREPQVYTLPPSQEEMTKNQVSLTCLVKGFYPSDIAVEWESNGQPENNYKTTPPVLDSDGSFFLYSRLTVDKSRWQEGNVFSCSVMHEALHNHYTQKSLSLSPGKGGGGSGGGGSIPPHVQKSVNNDMIVTDNNGAVKFPQLCKFCDVRFSTCDNQKSCMSNCSITSICEKPQEVCVAVWRKNDENITLETVCHDPKLPYHDFILEDAASPKCIMKEKKKPGETFFMCSCSSDECNDNIIFSEEYNTSNPD
light: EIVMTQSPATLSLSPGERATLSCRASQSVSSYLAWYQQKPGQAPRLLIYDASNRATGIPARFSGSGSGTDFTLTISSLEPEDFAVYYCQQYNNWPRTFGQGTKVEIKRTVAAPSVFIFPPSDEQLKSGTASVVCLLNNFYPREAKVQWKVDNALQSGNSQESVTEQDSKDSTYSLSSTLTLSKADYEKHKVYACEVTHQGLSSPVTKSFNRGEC
With B8 the “IC50, inhibition of TGF-β1 induced reporter gene activity (HEK-Blue TGF-β cells, SEAP)” value (shortened to “IC50, inhibition”) [9] was 10.7 pM and the Kd [7] was 0.0277 nM.

B9: Anti-PD1 (nVL1-nVH7).IgG4-TGFbRII (antibody)
heavy: B8 heavy with I27F
light: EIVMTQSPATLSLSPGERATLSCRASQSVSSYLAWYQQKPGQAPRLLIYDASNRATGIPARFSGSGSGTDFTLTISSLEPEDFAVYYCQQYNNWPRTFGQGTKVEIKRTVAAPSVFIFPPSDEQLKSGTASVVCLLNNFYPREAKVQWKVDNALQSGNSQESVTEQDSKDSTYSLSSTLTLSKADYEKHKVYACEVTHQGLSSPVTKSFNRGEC
In the case of B9, the “IC50, inhibition” value [9] is reported as 15.1 pM and the Kd [7] is reported as 0.147 nM.

B10: Anti-PD1(VH6-VL5) IgG4-TGFβRII (antibody)
heavy: B8 heavy with N100D
light: not shown
notes: IgG4 antibody with TGFβRII ECD fused to the C-terminus of the heavy chain; also called anti-PD-1 IgG4 antibody (VH6-VL5)-TGFβRII fusion protein; VH6-IgG4(wt)-linker-ECD with VL5
For B10, the “IC50; neutralisation of TGF-β1 signalling, HEK-Blue TGF-β reporter cells (SEAP, absorbance 620 nM)” value [2] was 14.9 pM, the “IC50; neutralisation of TGF-β3 signalling, HEK-Blue TGF-β reporter cells (SEAP, absorbance 620 nM)” value [3] was 6.7 pM and the Kd [10] was 5.22 pM. It also gave a Kd [11] of 0.859 nM and a Kd [12] of 2.19 pM.

B11: Anti-PD1 (nVL1-nVH8).IgG4-TGFbRII (antibody)
heavy: B8 heavy with Q1E, E6Q, D21S, K23A, I27F, N31S, S32Y, K57N, R58K, F80Y
light: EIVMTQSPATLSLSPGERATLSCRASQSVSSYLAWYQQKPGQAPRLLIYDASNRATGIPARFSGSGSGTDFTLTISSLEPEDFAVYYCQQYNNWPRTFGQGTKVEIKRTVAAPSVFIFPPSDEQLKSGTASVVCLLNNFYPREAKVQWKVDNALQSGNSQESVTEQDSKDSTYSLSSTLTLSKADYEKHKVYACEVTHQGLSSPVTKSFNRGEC
For B11, the “IC50, inhibition” value [9] was 54.5 pM and the Kd [7] was 0.321 nM.
